This is an account of results in PMC10410607.

The target of assay [1] is histidine-tagged human C5a (human) (UniProt P01031). The assay can be described thus: SPR; Biacore X100; His-C5a captured on a Ni-activated NTA chip at 25 RU; S512A-ScpA or S512A-79ΔPro flowed at 5.625-90 nM, 30 uL/min, association 180 s, dissociation 200 s; 10 mM HEPES-KOH pH 7.5, 150 mM NaCl, 0.005% Tween 20, 50 uM EDTA; global fit, Langmuir model; triplicates. (Surface plasmon resonance follows binding to a sensor surface in real time, without labels.)

The target is the same in assay [2]. The assay can be described thus: SPR; Biacore X100; His-C5a captured on a Ni-activated NTA chip at 25 RU; S512A-ScpA or S512A-79ΔPro flowed at 5.625-90 nM, 30 uL/min, association 180 s, dissociation 200 s; 10 mM HEPES-KOH pH 7.5, 150 mM NaCl, 0.005% Tween 20, 50 uM EDTA; global fit with a Langmuir model; triplicates.

In turn, “S512A-79ΔPro (active site mutated, propeptide truncated ScpA, amino acids 79-1032) (from UniProt P15926 79-1032) (enzyme)” yielded a Kd in assay [1] of 25 nM. Regarding “S512A-79ΔPro, active site mutated propeptide-truncated ScpA (amino acids 79-1032) (from UniProt P15926 79-1032) (enzyme)”, in assay [2], the Kd worked out at 35 nM, the koff was 0.00467 s⁻¹ and the kon worked out at 187000 M⁻¹ s⁻¹. Turning to “S512A-ScpA (active site mutated Streptococcus pyogenes C5a peptidase, amino acids 32-1032) (from UniProt P15926 32-1032) (enzyme)”, the Kd in assay [1] was found to be 35 nM. “S512A-ScpA, active site mutated Streptococcus pyogenes C5a peptidase (amino acids 32-1032) (from UniProt P15926 32-1032)” had a Kd in assay [2] of 25 nM. This lies in the double-digit nanomolar range. In the case of “S512A-ScpA, active site mutated Streptococcus pyogenes C5a peptidase (amino acids 32-1032) (from UniProt P15926 32-1032) (enzyme)”, in assay [2], the koff was determined as 0.00638 s⁻¹ and the kon was 182000 M⁻¹ s⁻¹.

A word on the Kd: it is the concentration at which binding is half-saturated. Broadly, the koff is a measure of how fast the partners let go of each other. Low readings indicate slow dissociation, high ones fast dissociation. The kon is the second-order rate constant of association.
